Experimental data taken from publication PMC10403728, “Interactions between Fkh1 monomers stabilize its binding to DNA replication origins” (The Journal of Biological Chemistry, 2023).

Molecular target: the molecule itself
Assay: SEC + other: glycerol gradient sedimentation; purified FLAG-Fkh1; Superdex 200 5/150 GL in 150N buffer (25 mM Hepes-NaOH pH 7.6, 150 mM NaCl, 10% glycerol, 1 mM β-mercaptoethanol); main-peak and shoulder fractions on 10 to 15% glycerol gradients, 180,000g, 18 h, 4 °C; approximate molecular weight from Stokes radius and S value; monomer and dimer

B1: full-length Fkh1 (natural protein, Saccharomyces cerevisiae, UniProt P40466 1-484, looked up)
chain: MSVTSREQKFSGKYSSYTAQDRQGLVNAVTCVLSSSSDPVAVSSDYSNSLSIAREVNAYAKIAGCDWTYYVQKLEVTIGRNTDSLNLNAVPGTVVKKNIDIDLGPAKIVSRKHAAIRFNLESGSWELQIFGRNGAKVNFRRIPTGPDSPPTVLQSGCIIDIGGVQMIFILPEQETIISDYCLNHLMPKLLSTYGTNGNNNPLLRNIIEGSTYLREQRLQEEARLQQLDHLHTPLSSSSDVNPIGDPHGDTIMMEEDEEDENYTRGGIRPNTYTSSSNNAVTNGNVPHIENPSDLSLDENRYIKPPQSYASMITQAILSTPEGSISLADIYKFISDNYAFYRFSQMAWQNSVRHNLSLNKAFEKVPKRAGQQGKGMNWKISDEVRRDFLNKWNAGKLSKIRRGASVTRQLQLHMSKFGEIPAPESSSIDPRGIKAQKVKKSLQATSSILGESAPQLQRTQLTGQISTTTSMDVTTNANVNNSSLS
notes: Fkh1, Forkhead family transcription factor of Saccharomyces cerevisiae, full length (the truncation Δ410–484 tells a length of 484 residues); also called wild-type Fkh1; FLAG-tagged full-length Fkh1; source: S. cerevisiae (W303 derivative), GAL1-10 promoter, galactose-induced; also in whole-cell extract of a strain co-expressing two differently tagged copies; not shown: FLAG, N-terminal, kept
- stoichiometry N: 2
